This is an account of results in patent US20210221875A1 (Chugai, published 2021).

The target of assay [1] is T1, soluble human IL-6R (human, UniProt P08887 20-357).
T1 construct: also called hsIL-6R; recombinant human IL6R
T1 sequence: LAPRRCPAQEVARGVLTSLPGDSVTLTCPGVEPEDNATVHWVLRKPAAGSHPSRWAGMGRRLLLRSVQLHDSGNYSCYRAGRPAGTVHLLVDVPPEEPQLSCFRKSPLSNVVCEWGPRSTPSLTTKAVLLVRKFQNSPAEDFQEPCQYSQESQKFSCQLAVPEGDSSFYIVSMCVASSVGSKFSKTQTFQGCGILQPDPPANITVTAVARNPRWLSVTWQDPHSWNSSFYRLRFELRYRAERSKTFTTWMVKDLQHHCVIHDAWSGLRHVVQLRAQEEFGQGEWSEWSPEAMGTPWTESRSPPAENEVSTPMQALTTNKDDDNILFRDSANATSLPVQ
The assay can be described thus: BLI (Octet), in the same way as in Example 3, 30 C or 25 C. In general terms: In BLI a coated tip is dipped into the sample, and binding shifts an interference pattern.

Assay [2] deals with T1, soluble human IL-6R. The assay can be described thus: BLI (Octet HTX), molecule on Protein A sensor, hsIL-6R as analyte, 30 C.
Protocol: The hsIL-6R binding evaluation of each molecule was conducted using Octet HTX (Pall ForteBio Corp.).
In assay [3] the target is T2, biotin-rabbit aggrecan G1-IGD-G2-3xFlag (rabbit, UniProt Q28670 17-683, biotin on the N-terminal Avi-tag (BirA co-expression)).
T2 construct: three tandem Flag-tags at the C-terminus and Avi-tag at the N-terminus; also called biotinylated Avi-rabbit aggrecan G1-IGD-G2-3xFLAG; Avi RbG1G2 3FLAG
Briefly: SPR (Biacore T200), 37 C, pH 7.4, antibody captured, Avi RbG1G2 3Flag as analyte, 1:1 model; second row with this name. (In general: SPR reads the build-up and loss of mass on a sensor chip optically.)
Protocol: (§1) Anti-Human IgG (Fc) antibody was immobilized onto all flow cells of a CM4 sensor chip using Human antibody capture kit (GE Healthcare). Protein A/G was immobilized onto all flow cells of a CM4 or C1 sensor chip using amine coupling kit (GE Healthcare). Antibodies and analytes were prepared in buffer (50 mM Sodium Phosphate, 150 mM NaCl, 0.02% Tween 20, 0.005% NaN3, pH 7.4 or 20 mM Sodium Phosphate, 150 mM NaCl, 0.05% Tween20, 0.005% NaN₃, pH 7.4). Each antibody was captured onto the sensor surface by Anti-Human IgG (Fc) antibody or Protein A/G. Antibody capture levels were aimed at 200 resonance unit (RU). […] Sensor surface was regenerated each cycle with 3 M MgCl₂ or 10 mM Glycine-HCl, pH 1.5.

Assay [4] concerns the target T2, biotin-rabbit aggrecan G1-IGD-G2-3xFlag. The assay can be described thus: SPR (Biacore T200), 37 C, pH 7.4, antibody captured, Avi RbG1G2 3Flag as analyte, 1:1 model.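 Also: antibodies captured at roughly 200 RU on a CM4 or C1 chip through anti-human IgG Fc or Protein A/G, in sodium phosphate NaCl buffer with Tween 20.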
Protocol: as §1
The target in assay [5] is T3, Human aggrecan G1-IGD-G2 domain with Flag-tag on its C-terminus (human, UniProt P16112 17-675).
T3 construct: used unlabelled as Biacore analyte; also called human aggrecan G1-IGD-G2-Flag; human Aggrecan G1G2 flag
The assay can be described thus: SPR (Biacore T200), 37 C, pH 7.4, antibody captured by protein A/G, 1:1 model.
Protocol: (§2) The binding affinity of the antibodies at pH 7.4 was determined at 37 degrees C. using Biacore T200 instrument (GE Healthcare). Recombinant Protein A/G (Pierce) was immobilized onto all flow cells of a CM4 sensor chip using amine coupling kit (GE Healthcare). Antibodies and analytes were prepared in buffer (20 mM Sodium Phosphate, 150 mM NaCl, 0.05% Tween 20, 0.005% NaN₃, pH 7.4). Each antibody was captured onto the sensor surface by protein A/G. Antibody capture levels were aimed at 200 resonance unit (RU). […] Sensor surface was regenerated each cycle with 10 mM Glycine-HCl pH 1.5.

Assay [6] addresses T2, biotin-rabbit aggrecan G1-IGD-G2-3xFlag. Described as above.
Protocol: as §2
Assay [7] has as its target T3, Human aggrecan G1-IGD-G2 domain with …. Briefly: SPR (Biacore T200), 37 C, pH 7.4, antibody captured by protein A/G, 1:1 model; footnote: fitting was not good due to bi-phasic interaction.
Protocol: as §2
The target of assay [8] is T2, biotin-rabbit aggrecan G1-IGD-G2-3xFlag. The description is as above.
Protocol: as §2
Assay [9] concerns the target T3, Human aggrecan G1-IGD-G2 domain with …. Briefly: SPR (Biacore), 37 C, as in Example 20.
Protocol: as §2
Assay [10] deals with T2, biotin-rabbit aggrecan G1-IGD-G2-3xFlag. The assay can be described thus: SPR (Biacore), 37 C, as in Example 20.
Protocol: as §2

B1: 20A11hu-G1m/VL2-14-lamL (antibody, human IgG1, lambda, V domains shown)
VH: EVQLVESGGGLVQPGGSLRLSCAASGSVFKINVMAWVRQAPGKGLEWVAGIISGGSTSYADSVKGRFTISRDNAKNTLYLQMNSLRPEDTAVYYCAFITTESDYDLGRRYWGQGTLVTVSS
VL: QSALTQPASVSGSPGQSITISCTGTSSDVGGYNYVSWYQQHPGKAPKLMIYEVSNRPSGVSNRFSGSKSGNTASLTISGLQAEDEADYYCSSYRSGYTLVVFGGGTKLTVLG
notes: IgG antibody-like molecule with VHH 20A11hu in place of VH
Take B1: the binding result in the assay with soluble human IL-6R [1] is “no binding”.

B2: IL6R90-G1m/VL2-14-lamL (antibody, human IgG1, lambda, V domains shown)
VH: EVQLVESGGGLVQPGGSLRLSCAASGFTFDDYGMSWVRQAPGKALEWVSAISWNGNNTYYTESMKGRFTISRDNAKNTLYLQMNSLRPEDTAVYYCVKGSTAIVGVPPTYPDEYDYWGQGTLVTVSS
VL: QSALTQPASVSGSPGQSITISCTGTSSDVGGYNYVSWYQQHPGKAPKLMIYEVSNRPSGVSNRFSGSKSGNTASLTISGLQAEDEADYYCSSYRSGYTLVVFGGGTKLTVLG
notes: IgG antibody-like molecule with VHH IL6R90 in place of VH
As for B2, the binding result with soluble human IL-6R [2] was “no binding”.

B3: IL6R90-G1m/VK2-28-k0MT (antibody, human IgG1, kappa, V domains shown)
VH: EVQLVESGGGLVQPGGSLRLSCAASGFTFDDYGMSWVRQAPGKALEWVSAISWNGNNTYYTESMKGRFTISRDNAKNTLYLQMNSLRPEDTAVYYCVKGSTAIVGVPPTYPDEYDYWGQGTLVTVSS
VL: not shown
notes: as for B2
As for B3, the binding result with soluble human IL-6R [2] is reported as “no binding”.

B4: IL6R90-G1m/VL1-40-lamL (antibody, human IgG1, lambda, V domains shown)
VH: EVQLVESGGGLVQPGGSLRLSCAASGFTFDDYGMSWVRQAPGKALEWVSAISWNGNNTYYTESMKGRFTISRDNAKNTLYLQMNSLRPEDTAVYYCVKGSTAIVGVPPTYPDEYDYWGQGTLVTVSS
VL: QSVLTQPPSVSGAPGQRVTISCTGSSSNIGAGYDVHWYQQLPGTAPKLLIYGNSNRPSGVPDRFSGSKSGTSASLAITGLQAEDEADYYCQSYDNSLNAVVFGGGTKLTVLG
notes: as for B2
In the case of B4, in the assay with soluble human IL-6R [2], the binding result is “no binding”.

B5: IL6R90-G1m/VL1-44-lamL (antibody, human IgG1, lambda, V domains shown)
VH: EVQLVESGGGLVQPGGSLRLSCAASGFTFDDYGMSWVRQAPGKALEWVSAISWNGNNTYYTESMKGRFTISRDNAKNTLYLQMNSLRPEDTAVYYCVKGSTAIVGVPPTYPDEYDYWGQGTLVTVSS
VL: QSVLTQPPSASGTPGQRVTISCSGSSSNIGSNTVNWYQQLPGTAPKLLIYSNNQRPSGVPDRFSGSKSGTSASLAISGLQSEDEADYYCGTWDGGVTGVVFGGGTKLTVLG
notes: as for B2
Turning to B5, the binding result with soluble human IL-6R [2] is listed as “no binding”.

B6: GRA0124Hc0626-SG1/GRA0124Lc0544-SK2 (antibody, human IgG1, kappa)
heavy: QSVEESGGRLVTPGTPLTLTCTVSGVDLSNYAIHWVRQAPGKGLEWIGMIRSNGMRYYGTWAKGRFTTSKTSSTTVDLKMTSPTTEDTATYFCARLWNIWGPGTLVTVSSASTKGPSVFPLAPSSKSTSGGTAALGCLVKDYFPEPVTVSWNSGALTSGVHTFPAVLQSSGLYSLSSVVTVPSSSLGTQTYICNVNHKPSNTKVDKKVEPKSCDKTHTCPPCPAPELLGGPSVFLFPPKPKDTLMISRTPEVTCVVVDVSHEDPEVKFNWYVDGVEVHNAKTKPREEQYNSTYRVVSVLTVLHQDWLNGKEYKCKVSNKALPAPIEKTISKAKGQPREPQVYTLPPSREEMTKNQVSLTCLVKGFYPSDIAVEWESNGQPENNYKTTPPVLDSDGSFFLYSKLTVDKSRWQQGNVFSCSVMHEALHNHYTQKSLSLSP
light: AQVLTQTPSSTSVAVGGTVTINCQSSPSVYLNLLAWYQQKPGQPPKLLIYSASFLQSGVPPRFSGSGSGTQFTLTISGVQCADAATYYCAGVYSNNIYTFGGGTKVEIKRTVAAPSVFIFPPSDEQLKSGTASVVCLLNNFYPREAKVQWKVDNALQSGNSQESVTEQDSKDCTYSLSSTLTLSKADYEKHKVYACEVTHQGLSSPVTKSFNRGEC
notes: also called GRA0124ccAE02-SG1; GRA124ccAE02-SG1
For B6, in [3], the Kd (usually the constant that tells how readily two partners part at equilibrium) was determined as 4.07 nM; the koff (as a rule, the rate constant with which the complex falls apart) came to 0.000341 s⁻¹; the kon (in general, a measure of how fast the partners come together) was found to be 83800 M⁻¹ s⁻¹. Moreover, in assay [4], the Kd came to 15.6 nM, the koff is 0.000838 s⁻¹ and the kon amounted to 53900 M⁻¹ s⁻¹.

B7: GRA1013hq-rIgG (antibody)
heavy: EVKLMESGGGLVKPGGSLKLSCAASGFTFSSYAMSWVRQTPEKRLEWVTSISSGGTTYYPDSVKGRFTISRDNARNILFLQMSSLRSEDTAMYYCARGPHWYLDVWGAGTSVTVSSSTKGGQPKAPSVFPLAPCCGDTPSSTVTLGCLVKGYLPEPVTVTWNSGTLTNGVRTFPSVRQSSGLYSLSSVVSVTSSSQPVTCNVAHPATNTKVDKTVAPSTCSKPMCPPPELLGGPSVFIFPPKPKDTLMISRTPEVTCVVVDVSQDDPEVQFTWYINNEQVRTARPPLREQQFNSTIRVVSTLPIAHQDWLRGKEFKCKVHNKALPAPIEKTISKARGQPLEPKVYTMGPPREELSSRSVSLTCMINGFYPSDISVEWEKNGKAEDNYKTTPTVLDSDGSYFLYSKLSVPTSEWQRGDVFTCSVMHEALHNHYTQKSISRSPGK
light: DILMTQTPLSLPVSLGDQASISCRSSQSIVHSNGNTYLEWYLQKPGQSPKLLIYKVSNRFSGVPDRFSGSGSGTDFTLKISRVEAEDLGVYYCFQGSHLPLTFGAGTKLELKRTVAARDPVAPTVLIFPPAADQVATGTVTIVCVANKYFPDVTVTWEVDGTTQTTGIENSKTPQNSADSTYNLSSTLTLTSTQYNSHKEYTCKVTQGTTSVVQSFNRGDC
notes: anti-aggrecan antibody from mouse B cells, rabbit constant regions rbIgG / rbIgK2
B7: in assay [5], the Kd came to 1540 nM, the koff turned out to be 0.0406 s⁻¹ and the kon was 26300 M⁻¹ s⁻¹. In [6], this molecule returned a Kd of 459 nM, a koff of 0.00973 s⁻¹ and a kon of 21200 M⁻¹ s⁻¹.

B8: GRA0105gg-rbIgG (antibody)
heavy: QSLEESGGGLVTPGTPLTLTCTVSGLSLSNSVMSWVRQAPGKGLEWIGFISIHDETNYATWAKGRFTISKTSSTTVDLKMTSPTTDDTATYFCARDGDSHGFYFGLWGPGTLVTVSSGQPKAPSVFPLAPCCGDTPSSTVTLGCLVKGYLPEPVTVTWNSGTLTNGVRTFPSVRQSSGLYSLSSVVSVTSSSQPVTCNVAHPATNTKVDKTVAPSTCSKPMCPPPELLGGPSVFIFPPKPKDTLMISRTPEVTCVVVDVSQDDPEVQFTWYINNEQVRTARPPLREQQFNSTIRVVSTLPIAHQDWLRGKEFKCKVHNKALPAPIEKTISKARGQPLEPKVYTMGPPREELSSRSVSLTCMINGFYPSDISVEWEKNGKAEDNYKTTPTVLDSDGSYFLYSKLSVPTSEWQRGDVFTCSVMHEALHNHYTQKSISRSPGK
light: QVLTQTPSPVSAAVGGTVTINCQASQSVYNKNNLAWYQQKPGQPPKLLIYDASKLASGVPSRFKGGGSGTHFTLTISGVQCDDAATYYCQGTYYSSGWYNTFGGGTKVEIKRDPVAPTVLIFPPAADQVATGTVTIVCVANKYFPDVTVTWEVDGTTQTTGIENSKTPQNSADCTYNLSSTLTLTSTQYNSHKEYTCKVTQGTTSVVQSFNRGDC
notes: anti-aggrecan antibody, rabbit constant regions rbIgG / rbIgK
Turning to B8, in assay [7], the Kd turned out to be 3.16 nM, the koff is 0.000287 s⁻¹ and the kon is 91100 M⁻¹ s⁻¹. In assay [8], the affinity, expressed as Kd, was 4.42 nM; the koff came to 0.000255 s⁻¹; the kon was 57700 M⁻¹ s⁻¹.

B9: GRA0124ccAE02-rbIgG (antibody)
heavy: QSVEESGGRLVTPGTPLTLTCTVSGVDLSNYAIHWVRQAPGKGLEWIGMIRSNGMRYYGTWAKGRFTTSKTSSTTVDLKMTSPTTEDTATYFCARLWNIWGPGTLVTVSSGQPKAPSVFPLAPCCGDTPSSTVTLGCLVKGYLPEPVTVTWNSGTLTNGVRTFPSVRQSSGLYSLSSVVSVTSSSQPVTCNVAHPATNTKVDKTVAPSTCSKPMCPPPELLGGPSVFIFPPKPKDTLMISRTPEVTCVVVDVSQDDPEVQFTWYINNEQVRTARPPLREQQFNSTIRVVSTLPIAHQDWLRGKEFKCKVHNKALPAPIEKTISKARGQPLEPKVYTMGPPREELSSRSVSLTCMINGFYPSDISVEWEKNGKAEDNYKTTPTVLDSDGSYFLYSKLSVPTSEWQRGDVFTCSVMHEALHNHYTQKSISRSPGK
light: QVLTQTPSSTSVAVGGTVTINCQSSPSVYLNLLAWYQQKPGQPPKLLIYSASFLQSGVPPRFSGSGSGTQFTLTISGVQCADAATYYCAGVYSNNIYTFGGGTKVEIKRDPVAPTVLIFPPAADQVATGTVTIVCVANKYFPDVTVTWEVDGTTQTTGIENSKTPQNSADCTYNLSSTLTLTSTQYNSHKEYTCKVTQGTTSVVQSFNRGDC
notes: also called GRA0124ccAE02-rIgG
In [9], B9 displayed a Kd of 553 nM, a koff of 0.0108 s⁻¹ and a kon of 19500 M⁻¹ s⁻¹. In [10], binding was characterised by a dissociation constant (Kd) of 16.4 nM, the koff turned out to be 0.000333 s⁻¹ and the kon was determined as 20400 M⁻¹ s⁻¹.
